Molecular target: human TNFR2 (tumor necrosis factor receptor 2) (human) (UniProt P20333)
Test: surface plasmon resonance (Pioneer SensiQ)

Chain of UniProt P20333 (P20333 23-257 S98P/S102P limits assumed): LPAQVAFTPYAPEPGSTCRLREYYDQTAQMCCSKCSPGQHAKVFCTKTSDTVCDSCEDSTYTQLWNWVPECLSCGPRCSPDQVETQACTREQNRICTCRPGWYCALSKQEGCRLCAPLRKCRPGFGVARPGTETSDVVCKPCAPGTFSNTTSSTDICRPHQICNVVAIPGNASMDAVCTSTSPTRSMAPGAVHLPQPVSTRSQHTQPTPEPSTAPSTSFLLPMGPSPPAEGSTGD

## Clone MAB726 (R&D Systems, Inc.) (antibody)
  Kd: 0.621 nM
